Reference: article doi:10.1101/2023.06.21.545551 (2023)

Biological target: MYC(303–351) (human)
Assay: NMR; printed fit value 1205 uM in parentheses

Kd: > 1000 µM
B1: MYC(1–88) (domain or fragment)
chain: MPLNVSFTNRNYDLDYDSVQPYFYCDEEENFYQQQQQSELQPPAPSEDIWKKFELLPTPPLSPSRRSGLCSPSYVAVTPFSLRGDNDG
